Experiment [1] deals with SARS-CoV-2 Omicron BA.5 S蛋白 (病毒颗粒上) (SARS-CoV-2). Put plainly: cell-based or functional assay.
The target of experiment [2] is SARS-CoV-2 Omicron(BA.2) S蛋白 (病毒颗粒上) (SARS-CoV-2). Put plainly: cell-based or functional assay.

LY-CoV1404(bebtelovimab) (antibody): the IC 50 (ng/mL), live virus neutralisation, FFA on Vero cells in experiment [1] is 7.99 ng/mL; in experiment [2] it was 11.2 ng/mL.

Values taken from CN117736314A.
